Test system: MS2 coat protein
Test: apparent KD of MS2 coat protein; designed switch direction (-1 OFF switch, 1 ON switch): -1; higher = weaker reporter binding
Summary of the method: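 Three titration conditions were used: no input, 200 uM small-molecule ligand, and an oligonucleotide input. In each, SNAP-549-labelled MS2 coat protein was raised from 0.7 or 1.5 nM, doubling, to 3 µM over designed RNA switches transcribed on Illumina chips by stalled E. coli RNA polymerase. Curve fits of normalised cluster fluorescence gave values whose per-design median over clusters is the apparent KD.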

[1] = Eterna round: R95, input ligand: microRNA oligo, concentration not stated
[2] = input ligand: microRNA oligo, concentration not stated
[3] = Eterna round: R95, input ligand: FMN 200 uM
[4] = Eterna round: R95, input ligand: none

| Sequence | apparent KD of MS2 coat protein (input ligand: FMN 200 uM) [nM] | apparent KD of MS2 coat protein (input ligand: none) [nM] | apparent KD of MS2 coat protein [1] [nM] | further results |
| --- | --- | --- | --- | --- |
| UCGAUGUGAGGAUAUAUUUUUAUUAGUCCUUAUGUUUUAUAACUUGAGGAUCACCCAAGUAGAAGGCGCGACGU [JR_Ex2_Sub061] (Eterna round: R97, puzzle: Exclusion 2) | 32.6 | 34.6 |  |  |
| UCGAUGUGAGGAUAUAUUUUUAUUAGUCCUUAUGUUUUAUAACUUGAGGAUCACCCAAGUAGAAGGCGCUACGU [JR_Ex2_Sub062] (Eterna round: R97, puzzle: Exclusion 2) | 25.5 | 40.9 |  |  |
| UCGCAAGCCAUUCCUACUCACAUGAGGAUCACCCAUGUCCUCAGGUUCGUCGUGUCUCUCUGCAAACACUUGCAGAG [Eternabot (L2) Solution 7] (Eterna round: R97, puzzle: Sensor, turn-off variant 1) | 145 | 762 |  |  |
| UCGCAGGGAGGAUAUACACACAGGUGACGCAGCCCAAAAGAACAUGAGGAUCACCCAUGUAGAAGGCUCAAUAU [Eternabot (Original) Solution 2] (Eterna round: R97, puzzle: Exclusion 2) | 51.5 | 31.2 |  |  |
| UCGCUGCGAGGAUAUACAUGAGGAUCACCCAUGUACGGGUCCGGGUCUAAGUUGAUAAGUAGAAGGCGCAGUGA [JL Laongeedie mod 12] (puzzle: Exclusion 3) |  |  | 114 |  |
| UCGCUGCGAGGAUAUACAUGAGGAUCACCCAUGUGCGGGUCCGGGUUUUCGUCCAUUAGUAGAAGGCGCAGUGA [JL Laongeedie mod 3] (puzzle: Exclusion 3) |  |  | 269 |  |
| UCGCUGCGAGGAUAUACGUUUGCGCGCUUUCGUUUGCGCGUACAUGAGGAUCACCCAUGUAGAAGGCGCGCUGC [Apr-15 SS2-7] (puzzle: Exclusion 2) |  |  | 13.1 |  |
| UCGGCCGCCGUGAGGAUAUGCCCGCGCGCCCGCGGGCAGAAGGCACAUGAGGAUCACCCAUGUCCCGCGGCACC [salish99_bmx4_r4_125] (Eterna round: R97, puzzle: Brourd's mod of Exclusion 4) | 15.1 | 14.1 |  |  |
| UCGGCGCGAGGAUAUACGUUUGCGCGUUUUCGUUUUCGCGUACAUGAGGAUCACCCAUGUAGAAGGCGCGCCGC [Apr-15 SS2-15] (puzzle: Exclusion 2) |  |  | 14 |  |
| UCGGCGCGAGGAUAUACGUUUGCUCUUUUUCGUUUUUGUGUACAUGAGGAUCACCCAUGUAGAAGGCGCGCCGC [Apr-15 SS2-19] (Eterna round: R96, puzzle: Exclusion 2) | 80.9 | 31.5 |  | apparent KD of MS2 coat protein [2]: 17.3 nM |
| UCGGCGCGAGGAUAUACGUUUGCUCUUUUUCGUUUUUGUGUACAUGAGGAUCACCCAUGUAGAAGGCGCGCCGC [Apr-15 SS2-19] (puzzle: Exclusion 2) |  |  | 17 |  |
| UCGGCGCGAGGAUAUACGUUUGCUUUUUUGGGUCGUUGCGUACAUGAGGAUCACCCAUGUAGAAGGCGCGCCGC [Apr-15 SS2-25] (Eterna round: R96, puzzle: Exclusion 2) | 145 | 31.8 |  | apparent KD of MS2 coat protein [2]: 25.9 nM |
| UCGGCGCGAGGAUAUACGUUUGCUUUUUUGGGUCGUUGCGUACAUGAGGAUCACCCAUGUAGAAGGCGCGCCGC [Apr-15 SS2-25] (puzzle: Exclusion 2) |  |  | 24.1 |  |
| UCGGCGCGAGGAUAUGCGGUUCCUCCCUAGGGCCGGAGCGUACAUGAGGAUCACCCAUGUAGAAGGCGCGCCGC [Apr-15 SS2-35] (puzzle: Exclusion 2) |  |  | 11.2 |  |
| UCGGCGCGAGGAUAUGCGGUUGCUCCCUAGGGUCGGAGCGUACAUGAGGAUCACCCAUGUAGAAGGCGCGCCGC [Apr-15 SS2-34] (puzzle: Exclusion 2) |  |  | 12.4 |  |
| UCGGCGCGAGGAUAUGCGGUUGCUUGGUAGGGUCGUGGCGUACAUGAGGAUCACCCAUGUAGAAGGCGCGCCGC [Apr-15 SS2-32*] (puzzle: Exclusion 2) |  |  | 15.5 |  |
| UCGGCGUCAGGAUAUCCAAUAUAUGACAUGAGGAUCACCCAUGUUUCCACUCGUACCUCCGGAGAAGGGACGAAUU [Ex5 #92] (Eterna round: R97, puzzle: Exclusion 5) | 33.5 | 32.1 |  |  |
| UCGGGAUGAGGAUAUACAUAGAAAUAGAUUCAUGUAAAACUACAUGAGGAUCACCCAUGUAGAAGGCAUUCCGU [Mat - Exclusion 2 - JL Mod - D58] (Eterna round: R97, puzzle: Exclusion 2) | 110 | 24.2 |  |  |

| Sequence | apparent KD of MS2 coat protein (input ligand: FMN 200 uM) [nM] | apparent KD of MS2 coat protein (input ligand: none) [nM] | apparent KD of MS2 coat protein [1] [nM] | further results |
| --- | --- | --- | --- | --- |
| UCGUAGGAAGGAUAUGCAUGCUUUGAUAAAUCCAGGCCUGGACAUGAGGAUCACCCAUGUAGAAGGUCCACGGA [EX2 B.11] (Eterna round: R97, puzzle: Exclusion 2) | 36.6 | 31.4 |  |  |
| UCGUAGUCAGGAUAUACAUGAGGAUCACCCAUGUAAAAUUUUAAUUUAAUUUUAAGGUGUAGAAGGGACCAGUU [Ex3 #22] (Eterna round: R97, puzzle: Exclusion 3) | 43.4 | 51.8 |  |  |
| UCGUCGUCUGCGCCUGGACACAUGAGGAUCACCCAUGUCCCUAGCGGUUUACCGCUGUGACAAAACAAGCUGCUCGU [Eternabot (Original) Solution 25] (Eterna round: R97, puzzle: Sensor, turn-off variant 1) | 145 | 185 |  |  |
| UCGUGGUUACUCUGCAGUUUCCUGAGCGGAGGCUCUUUGACAUGAGGAUCACCCAUGUUGCUUUUUGCUCAUCUUAA [JR_SV3TOV2_Sub041] (puzzle: Sensor v3, turn-off variant 2) |  |  | 15.8 | apparent KD of MS2 coat protein [3]: 14.2 nM; apparent KD of MS2 coat protein [4]: 12.4 nM |
| UCGUGUUUAGAGGAUAUAUUAAUAUUUUAAACAAUAGAAGGCUAAACAUGAGGAUCACCCAUGUAUUUGGUUUU [JR_Ex6_Sub055] (Eterna round: R97, puzzle: Exclusion 6) | 46.6 | 233 |  |  |
| UCGUUCCGUGUAGGAUAUUGGCCUGCUCUGGGUCGAGAAGGACAUGAGGAUCACCCAUGUAUGUUAUUAUCACGCGUGGCGCAU [Design 81] (Eterna round: R96, puzzle: Exclusion NG 1) | 61.7 | 31.8 |  | apparent KD of MS2 coat protein [2]: 22.9 nM |
| UCUAGACAUGAGGAUCACCCAUGUGAGGAUAUGAUGCGAUCGUCGAAAGACGAUAGCAUCAGAAGGCACAAAUG [Fiskers Ex 1 - 12] (Eterna round: R96, puzzle: Exclusion 1) | 200 | 72.3 |  | apparent KD of MS2 coat protein [2]: 53.6 nM |
| UCUAGACAUGAGGAUCACCCAUGUGAGGAUAUGAUGCGAUCGUCGAAAGACGAUAGCAUCAGAAGGCACAAAUG [Fiskers Ex 1 - 12] (puzzle: Exclusion 1) |  |  | 56.9 | apparent KD of MS2 coat protein [3]: 153 nM; apparent KD of MS2 coat protein [4]: 69.9 nM |
| UCUAUGAUGCGAGGAUAUCGACCAUUCCUCUUUACAUGAGGAUCACCCAUGUUCGUACGCUACAACGAGAAGGCGCACUAAGAU [JR_ExcNG2_Sub059] (Eterna round: R96, puzzle: Exclusion NG 2) | 438 | 194 |  | apparent KD of MS2 coat protein [2]: 101 nM |
| UCUCCCACUCGAGGAUAUCCAUAGAGCAACUGAGGAGAAGGCGAGUGUCCAAAACAUGAGGAUCACCCAUGUGACCUCCCGAAC [Eredgein] (Eterna round: R96, puzzle: Exclusion NG 1) | 101 | 39.6 |  | apparent KD of MS2 coat protein [2]: 37.5 nM |
| UCUCCCGCUCGAGGAUAUCCAUAGAGCAACUGAGGAGAAGGCGAGCGUCCUAAACAUGAGGAUCACCCAUGUGACCUCCCGAAC [Zabiledila] (Eterna round: R96, puzzle: Exclusion NG 1) | 55 | 39.1 |  | apparent KD of MS2 coat protein [2]: 41.2 nM |
| UCUCCCUGGCGAGGAUAUCCUGUGCGGUUCCGGCUCGUGUCUGUUACAUGAGGAUCACCCAUGUGGGAGAAGGUGCCUGUGGCU [Design 93] (Eterna round: R96, puzzle: Exclusion NG 2) | 141 | 124 |  | apparent KD of MS2 coat protein [2]: 68 nM |
| UCUCGACAUGAGGAUCACCCAUGUCAGGAUAUUGUAUUGGAGGUGUUUAACCUUAUGGCAAGAAGGGAUGUGUG [LRO-Excl1-25] (puzzle: Exclusion 1) |  |  | 22.9 |  |
| UCUCGCGGGCAAGGAUAUCCCACACUGUUCUGGCCCGUGUCUGUUACAUGAGGAUCACCCAUGUGGGAGAAGGUGCACCAGGGC [Design 44] (Eterna round: R96, puzzle: Exclusion NG 2) | 78.8 | 35.9 |  | apparent KD of MS2 coat protein [2]: 31.6 nM |
| UCUCGCGGGCAAGGAUAUCCUACGUUGUUCUGGCCCGGGCAUGUUACAUGAGGAUCACCCAUGUGGGAGAAGGUGCGCCAGGGC [Design 36] (Eterna round: R96, puzzle: Exclusion NG 2) | 36.8 | 36.7 |  | apparent KD of MS2 coat protein [2]: 28.2 nM |
| UCUCUGCGAGGAUAUACGUGCGCGCGCGCGCGCGCGCGCGUACAUGAGGAUCACCCAUGUAGAAGGCGCUCUGC [Apr-15 SS2-3] (puzzle: Exclusion 2) |  |  | 19.4 |  |
| UCUGCCGCCGUGAGGAUAUGCCCGCGCAAACGCGGGCAGAAGGCACAUGAGGAUCACCCAUGUCCCGCGGUUUU [salish99_bmx4_r4_133] (Eterna round: R97, puzzle: Brourd's mod of Exclusion 4) | 38.7 | 18.3 |  |  |
| UCUGGUCGAGGAUAUACAUGAGGAUCACCCAUGUAGAUCAACCAGCUUCGGCUGGAAUGUAGAAGGCGACCAGA [E3/5-A6] (Eterna round: R97, puzzle: Exclusion 3) | 149 | 19.8 |  |  |
